According to US7718626B2, “ErbB3 binding protein compositions and methods of use” (University of Maryland, Baltimore, priority 2005, dated 2010):

Key:
[1] = system: LNCaP cells; assay: Soft agar colony growth assay; format: cell-based, human; settings: highest cell concentration tested, ten days
Method: (§1) Cell Growth Assays: To measure growth in complete media, cells (2×10^4) were seeded in triplicate in individual wells of 12-well tissue culture plates in RPMI-1640 with 10% FBS and cultured for the indicated number of days. Cells were trypsinized, stained with Trypan Blue (0.4%), and counted in a hemacytometer. For soft agar growth assays, increasing concentrations of cells (as indicated) were plated in 35 mm petri dishes in complete media and 0.3% Difco Bacto Agar over an 0.5% agar layer. Colonies were counted after 10 days of incubation. For studies assessing the effect of dihydrotestosterone (DHT) on cell growth, cells (2×10^4) were plated in 12-well plates in complete media. After a 24-hour attachment period, the medium was replaced with steroid-free medium [phenol red-free RPMI 1640 and 5% charcoal-stripped FBS (Sigma)] for 48 hours. The final concentration of testosterone in the steroid-reduced media was less than 5 pM. After 48 hours of steroid depletion, cells were re-fed with fresh steroid-reduced medium with or without the indicated concentrations of DHT and/or bicalutamide (10 μM), and total cell numbers were assessed 7 days later.
The soft agar growth of ebp1 transfectants was also examined. LNCaP vector controls and ebp1 transfectants were seeded at concentrations between 1×10^4 and 1×10^5 cells per dish and colony growth in soft agar assessed ten days later. […]

[2] = system: secreted PSA of LNCaP cells; assay: PSA secretion in conditioned media by ELISA; format: cell-based, human; settings: ebp1 transfectants vs controls
Method: Measurement of PSA levels: Serum PSA levels were determined using a PSA ELISA kit from DSL, Inc (Webster, Tex.). […] Following a 1 h incubation and extensive washing of the plate, the wells were treated for 30 min with a second anti-PSA antibody labeled with horseradish peroxidase. After washing, the wells were treated with a tetramethylbendizine substrate for 10 min, and absorbance was read at 450 nm. The results of the microarray analysis were validated using real-time quantitative reverse-transcription PCR, Western blot, and ELISA methods. […] The expression of POV-1 mRNA and protein were each decreased about two-fold. PSA secretion in the conditioned media of ebp1 and vector control cells was assessed by ELISA. […] Finally, […]-2 mRNA expression was decreased approximately 40%.

[3] = system: LNCaP xenografts; assay: LNCaP xenograft tumorigenicity in SCID mice; format: in vivo
Method: In Vivo Studies in SCID Mice: Male SCID mice, 4-6 weeks of age, were purchased from the National Cancer Institute (Frederick, Md.). Animals were housed in a pathogen-free environment under controlled conditions of light and humidity and received food and water ad libitum. LNCaP cells were grown in complete medium and 800 μg/ml of G418 until 80% confluent. Cells were scraped into phosphate-buffered saline (PBS), collected by centrifugation, and suspended in Matrigel (10 mg/ml) (Collaborative Research, Waltham, Mass.) at 1×10^7 cells/ml. Each mouse received s.c. injections at one site on each flank with 100 μl of cell suspension. Tumors were measured three times a week with calipers, and tumor volumes were calculated by the formula 0.5236×r1^2×r2 (r1<r2). The animal protocols were approved by the Institutional Animal Care and Use Committee at the University of Maryland.
After sacrifice, tumors were excised and fixed in 10% buffered neutral formalin. Sections of formalin-fixed, paraffin-embedded tissues were cut to 5 μm. Slides were stained with an Ebp1 antibody (Upstate) diluted 1:50 using the standard avidin-biotin method (Vector Labs, Burlinghame, Calif.). Peroxidase activity was localized by the diaminobenzidine tetrachloride peroxidase reaction with Harris hematoxylin as a counterstain.
Ebp1 expression suppresses growth of prostate cancer xenografts: The effect of ectopic expression of ebp1 on the tumorigenicity of LNCaP cells was examined. Ebp1- and vector-transfected cells were injected subcutaneously into SCID mice, and tumor growth was monitored. Tumor growth was first noted in both groups at day 20. […] At the end of the study, tumors had developed at more than 85% of the sites injected with the vector control cells, while less than 40% of sites inoculated with ebp1 transfectants developed tumors. This difference was significant at p=0.04 by Fisher's exact test, two-sided. […] Average tumor volumes observed at the end of the study were 268±70 mm^3 as compared with 1214±168 mm^3 for the vector controls (p=0.0003). In addition, the growth rate was also slower for ebp1 transfectants at all time points measured (p=0.0001). […] Thus, cells that grew to form tumors had lost overexpression of the transgene.

[4] = system: LNCaP cells; assay: Cell growth in complete media; format: cell-based, human
Method: as §1
Growth Characteristics of LNCaP ebp1 transfectants: The growth rate of the ebp1-transfected cells in complete media was compared to that of cells transfected with the empty vector. […]

B1: Ebp1: ErbB3 binding protein (SEQ ID NO: 2), tested by stable ectopic expression (ebp1 transfection) in LNCaP cells (protein)
chain: MSGEDEQQEQTIAEDLVVTKYKMGGDIANRVLRSLVEASSSGVSVLSLCEKGDAMIMEETGKIFKKEKEMKKGIAFPTSISVNNCVCHFSPLKSDQDYILKEGDLVKIDLGVHVDGFIANVAHTFVVDVAQGTQVTGRKADVIKAAHLCAEAALRLVKPGNQNTQVTEAWNKVAHSFNCTPIEGMLSHQLKQHVIDGEKTIIQNPTDQQKKDHEKAEFEVHEVYAVDVLVSSGEGKAKDAGQRTTIYKRDPSKQYGLKMKTSRAFFSEVERRFDAMPFTLRAFEDEKKARMGVVECAKHELLQPFNVLYEKEGEFVAQFKFTVLLMPNGPMRITSGPFEPDLYKSEMEVQDAELKALLQSSASRKTQKKKKKKASKTAENPTSGETLEENEAGD
modifications: Homo Sapien
decrease of colony growth in soft agar [1]: approximately 90% | secreted PSA protein downregulation [2]: 10 fold | tumor growth rate ([3]; all time points measured, vs vector controls, p=0.0001): slower | inoculation sites with tumors ([3]; day 20, s.c. in SCID mice (vector controls 35%)): 10% | inoculation sites that developed tumors ([3]; end of the study (vector control more than 85%), p=0.04): less than 40% | average tumor volume ([3]; end of the study (vector controls 1214±168 mm^3), p=0.0003): 268±70 mm^3 | growth rate in complete media ([4]; ebp1 transfectants vs vector control, p<0.05): significantly decreased | doubling time ([4]; ebp1 transfectants, complete media (vector control 48 hours)): 72 h
